US20170137467A1 (CHROMOTEK, published 2017)
Ends that are not written are not given here.

Columns and labels:
Test in all cases: pepscan: 15-mer peptide on OVA-microspheres, biotinylated BC2-Nb, streptavidin-PE
β-catenin peptide 77-91 = target: T1, β-catenin peptide 77-91 (human, UniProt P35222)
T1 construct: synthetic 15-mer; additional N-terminal cysteine for coupling; also called Start 77 End 91
T1 peptide (looked up): EQVADIDGQYAMTRA
Excerpt: (§1) As negative controls, microspheres comprising Ovalbumin and the Myc-peptide ([…]) covalently coupled to OVA-microspheres were used. […] Evaluation of the PE-signals were done in a Flexmap 3D (Luminex).

β-catenin peptide 21-35 = target: T2, β-catenin peptide 21-35 (human, UniProt P35222)
T2 construct: synthetic 15-mer; additional N-terminal cysteine for coupling; also called Start 21 End 35
T2 peptide (looked up): AVSHWQQQSYLDSGI
Excerpt: as §1

[1] = target: T3, β-catenin peptide 109-123 (human, UniProt P35222)
T3 construct: synthetic 15-mer; additional N-terminal cysteine for coupling; also called Start 109 End 123
T3 peptide (looked up): IPSTQFDAAHPTNVQ
Excerpt: as §1

β-catenin peptide 69-83 = target: T4, β-catenin peptide 69-83 (human, UniProt P35222)
T4 construct: synthetic 15-mer; additional N-terminal cysteine for coupling; also called Start 69 End 83
T4 peptide (looked up): GFSQSFTQEQVADID
Excerpt: as §1

[2] = target: T5, β-catenin peptide 105-119 (human, UniProt P35222)
T5 construct: synthetic 15-mer; additional N-terminal cysteine for coupling
T5 peptide (looked up): EGMQIPSTQFDAAHP
Excerpt: as §1

β-catenin peptide 97-111 = target: T6, β-catenin peptide 97-111 (human, UniProt P35222)
T6 construct: synthetic 15-mer; additional N-terminal cysteine for coupling; also called Start 97 End 111
T6 peptide (looked up): AMFPETLDEGMQIPS
Excerpt: as §1

β-catenin peptide 29-43 = target: T7, β-catenin peptide 29-43 (human, UniProt P35222)
T7 construct: synthetic 15-mer; additional N-terminal cysteine for coupling; also called Start 29 End 43
T7 peptide (looked up): SYLDSGIHSGATTTA
Excerpt: as §1

β-catenin peptide 89-103 = target: T8, β-catenin peptide 89-103 (human, UniProt P35222)
T8 construct: synthetic 15-mer; additional N-terminal cysteine for coupling; also called Start 89 End 103
T8 peptide (looked up): TRAQRVRAAMFPETL
Excerpt: as §1

[3] = target: T9, β-catenin peptide 113-127 (human, UniProt P35222)
T9 construct: synthetic 15-mer; additional N-terminal cysteine for coupling; also called Start 113 End 127
T9 peptide (looked up): QFDAAHPTNVQRLAE
Excerpt: as §1

β-catenin peptide 9-23 = target: T10, β-catenin peptide 9-23 (human, UniProt P35222)
T10 construct: synthetic 15-mer; additional N-terminal cysteine for coupling; also called Start 9 End 23
T10 peptide (looked up): ELDMAMEPDRKAAVS
Excerpt: as §1

β-catenin peptide 61-75 = target: T11, β-catenin peptide 61-75 (human, UniProt P35222)
T11 construct: synthetic 15-mer; additional N-terminal cysteine for coupling; also called Start 61 End 75
T11 peptide (looked up): QVLYEWEQGFSQSFT
Excerpt: as §1

AMEPDRKAAVSHWQQ = target: T12, AMEPDRKAAVSHWQQ (also: coupled via added N-terminal Cys to OVA-microspheres)
T12 construct: also called β-catenin peptide Start 13 End 27
T12 peptide: CAMEPDRKAAVSHWQQ
Excerpt: as §1

β-catenin peptide 45-59 = target: T13, β-catenin peptide 45-59 (human, UniProt P35222)
T13 construct: synthetic 15-mer; additional N-terminal cysteine for coupling; also called Start 45 End 59
T13 peptide (looked up): SLSGKGNPEEEDVDT
Excerpt: as §1

β-catenin peptide 1-15 = target: T14, β-catenin peptide 1-15 (human, UniProt P35222)
T14 construct: synthetic 15-mer; additional N-terminal cysteine for coupling; also called Start 1 End 15
T14 peptide (looked up): MATQADLMELDMAME
Excerpt: as §1

β-catenin peptide 65-79 = target: T15, β-catenin peptide 65-79 (human, UniProt P35222)
T15 construct: synthetic 15-mer; additional N-terminal cysteine for coupling; also called Start 65 End 79
T15 peptide (looked up): EWEQGFSQSFTQEQV
Excerpt: as §1

[4] = target: T16, β-catenin peptide 101-115 (human, UniProt P35222)
T16 construct: synthetic 15-mer; additional N-terminal cysteine for coupling
T16 peptide (looked up): ETLDEGMQIPSTQFD
Excerpt: as §1

β-catenin peptide 85-99 = target: T17, β-catenin peptide 85-99 (human, UniProt P35222)
T17 construct: synthetic 15-mer; additional N-terminal cysteine for coupling; also called Start 85 End 99
T17 peptide (looked up): QYAMTRAQRVRAAMF
Excerpt: as §1

β-catenin peptide 81-95 = target: T18, β-catenin peptide 81-95 (human, UniProt P35222)
T18 construct: synthetic 15-mer; additional N-terminal cysteine for coupling; also called Start 81 End 95
T18 peptide (looked up): DIDGQYAMTRAQRVR
Excerpt: as §1

β-catenin peptide 93-107 = target: T19, β-catenin peptide 93-107 (human, UniProt P35222)
T19 construct: synthetic 15-mer; additional N-terminal cysteine for coupling; also called Start 93 End 107
T19 peptide (looked up): RVRAAMFPETLDEGM
Excerpt: as §1

β-catenin peptide 49-63 = target: T20, β-catenin peptide 49-63 (human, UniProt P35222)
T20 construct: synthetic 15-mer; additional N-terminal cysteine for coupling; also called Start 49 End 63
T20 peptide (looked up): KGNPEEEDVDTSQVL
Excerpt: as §1

B1: BC2 nanobody (VHH)
VHH: QVQLVESGGGLVQPGGSLTLSCTASGFTLDHYDIGWFRQAPGKEREGVSCINNSDDDTYYADSVKGRFTIFMDNAKDTVYLQMNSLKPEDTAIYYCAEARGCKRGRYEYDFWGQGTQVTVSS
notes: Alpaca VHH, 122 aa; also called BC2-Nb; BC2 nanotrap (BC2-Nb immobilized on agarose/Sepharose beads); not shown: C-terminal 6xHis-tag added by the pHEN6 vector
Which results are given for B1?
binding result (β-catenin peptide 77-91): no binding (tested: 1 µg/ml BC2-Nb); binding result (β-catenin peptide 21-35): no binding (tested: 1 µg/ml BC2-Nb); binding result [1]: no binding (tested: 1 µg/ml BC2-Nb); binding result (β-catenin peptide 69-83): no binding (tested: 1 µg/ml BC2-Nb); binding result [2]: no binding (tested: 1 µg/ml BC2-Nb); binding result (β-catenin peptide 97-111): no binding (tested: 1 µg/ml BC2-Nb); binding result (β-catenin peptide 29-43): no binding (tested: 1 µg/ml BC2-Nb); binding result (β-catenin peptide 89-103): no binding (tested: 1 µg/ml BC2-Nb); binding result [3]: no binding (tested: 1 µg/ml BC2-Nb); binding result (β-catenin peptide 9-23): no binding (tested: 1 µg/ml BC2-Nb); binding result (β-catenin peptide 61-75): no binding (tested: 1 µg/ml BC2-Nb); binding result (AMEPDRKAAVSHWQQ): binds; binding result (β-catenin peptide 45-59): no binding (tested: 1 µg/ml BC2-Nb); binding result (β-catenin peptide 1-15): no binding (tested: 1 µg/ml BC2-Nb); binding result (β-catenin peptide 65-79): no binding (tested: 1 µg/ml BC2-Nb); binding result [4]: no binding (tested: 1 µg/ml BC2-Nb); binding result (β-catenin peptide 85-99): no binding (tested: 1 µg/ml BC2-Nb); binding result (β-catenin peptide 81-95): no binding (tested: 1 µg/ml BC2-Nb); binding result (β-catenin peptide 93-107): no binding (tested: 1 µg/ml BC2-Nb); binding result (β-catenin peptide 49-63): no binding (tested: 1 µg/ml BC2-Nb)
